Experimental data: paper PMC6033355

Experiments:
[1] = target: V3, soluble IL-17RA (extracellular domain of the IL-17A receptor with point mutations that increase affinity for IL-17A); assay: BLI; Octet Red; HD_(N-TIMP2,V3) or V3 loaded on Protein A sensors (10 ug/ml, 300 s); IL-17A or MMP-9CAT in solution at 50, 100, 200 nM; 300 s association, 1800-2500 s dissociation; 30 C; PBS, 1% BSA, 0.05% Tween; 1:1 binding model
[2] = target: HD_(N-TIMP2,V3) bi-specific heterodimer (N-TIMP2 fused by a linker to V3, the engineered soluble extracellular domain of the IL-17A receptor, with human IgG1 Fc and 6xHis); assay: as above
[3] = target: MMP-9 catalytic domain (Homo sapiens) (UniProt P14780); conditions: cited from earlier work
MMP-9 catalytic domain (Homo sapiens), sequence (P14780 107-443): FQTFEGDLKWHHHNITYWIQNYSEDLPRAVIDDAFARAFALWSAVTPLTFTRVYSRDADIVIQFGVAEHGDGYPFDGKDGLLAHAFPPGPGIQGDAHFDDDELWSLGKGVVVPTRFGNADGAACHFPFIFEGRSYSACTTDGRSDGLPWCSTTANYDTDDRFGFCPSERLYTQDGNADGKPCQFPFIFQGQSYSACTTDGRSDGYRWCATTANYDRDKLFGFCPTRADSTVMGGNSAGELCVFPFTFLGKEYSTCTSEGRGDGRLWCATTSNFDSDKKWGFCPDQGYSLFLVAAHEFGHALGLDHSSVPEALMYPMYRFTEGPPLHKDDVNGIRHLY

IL-17A (interleukin-17A), sequence (Q16552 24-155): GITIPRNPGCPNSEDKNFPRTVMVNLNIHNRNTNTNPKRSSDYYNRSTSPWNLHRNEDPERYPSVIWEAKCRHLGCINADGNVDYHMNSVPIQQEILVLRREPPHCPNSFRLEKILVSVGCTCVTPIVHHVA
N-TIMP2 N-terminal domain, sequence (P16035 27-153): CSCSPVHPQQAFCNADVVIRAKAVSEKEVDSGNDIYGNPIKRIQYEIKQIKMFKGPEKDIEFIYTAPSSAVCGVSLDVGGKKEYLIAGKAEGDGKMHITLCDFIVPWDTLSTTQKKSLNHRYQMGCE

Row | Substance | Kd [1] | Kd [2] | Ki [3]
1 | IL-17A (interleukin-17A) (from UniProt Q16552 24-155) (ligand) | 0.122 nM | 0.048 nM | –
2 | N-TIMP2 N-terminal domain (from UniProt P16035) | – | – | 0.1 nM
